# According to patent US20250027068A1:
# Numbering of substitutions follows the chain as printed.
# B1: VRT-5 (Fc fusion)
# chain: VTSVWTKGVTPPANFTQGEDVFHAPYKANQGWYDITKTFNGKDDLLCGAATAGNMLHWWFDQNKDQIEAYLKEHPEKQKINFNGEQMFDVKEAIDTKDDQTNSKLFEYFKEKAFPYLSTKHLGVFPDHVLDMFINGYRLSLTNHGPTPVKEGSKDPRGGIFDAVFTRGDQSKLLTSRHDFKEKTLKEISDLIKQELTEGKALALSHTYANVRINHVINLWGADFDSNGNLEAIYVTDSDSNASIGMKKYFVGVNSAGKVAISAKEIEDDNIGAQVLGLFTLSTGQDIWNQTNDKTHTCPPCPAPEAAGAPSVFLFPPKPKDTLMISRTPEVTCVVVDVSHEDPEVKFNWYVDGVEVHNAKTKPREEQQNSTYRVVSVLTVLHQDWLNGKEYKCKVSNKALKAPIEKTISKAKGQPREPQVYTLPPSRDELTKNQVSLTCLVKGFYPSDIAVEWESNGQPENNYKTTPPVLDSDGSFFLYSKLTVDKSRWQQGNVFSCSVMHEALHNHYTQKSLSLSPG
# B2: VRT-10 (Fc fusion)
# chain: TITSVWTKGVTPPTPEDFRYNNEDVLHAPYVANQGWYDITKTFDGKDNLLCGAATAGNMLHWWFDQNKEEIERYLKKHPEKQKIIFNNQELFDVKAAIDTKDSQTNSKLFNYFRDKAFPNLSARQLGVMPDLVLDMFINGYYLNLGKTQSTDVNRPYQDKDKRGGIFDAVFTRGDQTTLLTARHDLKNKGLNEISDLIKQELTEGKALALSHTYANVRINHVINLWGADFDAEGNLIAIYVTDSDANASIGMKKYFVGVNANGKVAISAKKIEGDNIGAQVLGLFTLSTGQDIWQKLSDKTHTCPPCPAPEAAGAPSVFLFPPKPKDTLMISRTPEVTCVVVDVSHEDPEVKFNWYVDGVEVHNAKTKPREEQQNSTYRVVSVLTVLHQDWLNGKEYKCKVSNKALKAPIEKTISKAKGQPREPQVYTLPPSRDELTKNQVSLTCLVKGFYPSDIAVEWESNGQPENNYKTTPPVLDSDGSFFLYSKLTVDKSRWQQGNVFSCSVMHEALHNHYTQKSLSLSPG
# B3: VRT-7 (Fc fusion)
# chain: VTSVWTKGVTPPTNFTYGEDVLHAPYVANQGWYDITKTFNGKDDLLCGAATAGNMLHWWFDQNKEQIENYLKKHPEKQKINFNGEQMFDVKEAIDTKDSQLDSKLFEYFKEKAFPYLSTKHLGVFPDHVIDMFINGYRLSLTNHGPTPVKRGSKDPRGGIFDAVFTRGDQSKLLTNRHDFKEKTLKEISDLIKQELTEGKALGISHTYANVRINHVINLWGADFDAEGNLEAIYVTDSDSNASIGMKKYFVGVNSNGKVAISAKEIEEDNIGAQVLGLFTLSTGQDIWNQTNDKTHTCPPCPAPEAAGAPSVFLFPPKPKDTLMISRTPEVTCVVVDVSHEDPEVKFNWYVDGVEVHNAKTKPREEQQNSTYRVVSVLTVLHQDWLNGKEYKCKVSNKALKAPIEKTISKAKGQPREPQVYTLPPSRDELTKNQVSLTCLVKGFYPSDIAVEWESNGQPENNYKTTPPVLDSDGSFFLYSKLTVDKSRWQQGNVFSCSVMHEALHNHYTQKSLSLSPG
# B4: VRT-2 (Fc fusion)
# chain: VTSVWTKGVTPPAKFTQGEDVFHAPYVANQGWYDITKTFNGKDDLLCGAATAGNMLHWWFDQNKEKIEAYLKKHPDKQKIMFGDQELLDVRKVINTKGDQTNSELFNYFRDKAFPGLSARRIGVMPDLVLDMFINGYYLNVYKTQTTDVNRTYQEKDRRGGIFDAVFTRGDQSKLLTSRHDFKEKNLKEISDLIKKELTEGKALGLSHTYANVRINHVINLWGADFDSNGNLKAIYVTDSDSNASIGMKKYFVGVNSAGKVAISAKEIKEDNIGAQVLGLFTLSTGQDSWNQTNDKTHTCPPCPAPEAAGAPSVFLFPPKPKDTLMISRTPEVTCVVVDVSHEDPEVKFNWYVDGVEVHNAKTKPREEQQNSTYRVVSVLTVLHQDWLNGKEYKCKVSNKALKAPIEKTISKAKGQPREPQVYTLPPSRDELTKNQVSLTCLVKGFYPSDIAVEWESNGQPENNYKTTPPVLDSDGSFFLYSKLTVDKSRWQQGNVFSCSVMHEALHNHYTQKSLSLSPG
# B5: VRT-1 (Fc fusion)
# chain: VTSVWTKGVTPPANFTQGEDVFHAPYVANQGWYDITKTFNGKDDLLCGAATAGNMLHWWFDQNKDQIKRYLEEHPEKQKINFNGEQMFDVKEAIDTKNHQLDSKLFEYFKEKAFPYLSTKHLGVFPDHVIDMFINGYRLSLTNHGPTPVKEGSKDPRGGIFDAVFTRGDQSKLLTSRHDFKEKNLKEISDLIKKELTEGKALGLSHTYANVRINHVINLWGADFDSNGNLKAIYVTDSDSNASIGMKKYFVGVNSAGKVAISAKEIKEDNIGAQVLGLFTLSTGQDSWNQTNDKTHTCPPCPAPEAAGAPSVFLFPPKPKDTLMISRTPEVTCVVVDVSHEDPEVKFNWYVDGVEVHNAKTKPREEQQNSTYRVVSVLTVLHQDWLNGKEYKCKVSNKALKAPIEKTISKAKGQPREPQVYTLPPSRDELTKNQVSLTCLVKGFYPSDIAVEWESNGQPENNYKTTPPVLDSDGSFFLYSKLTVDKSRWQQGNVFSCSVMHEALHNHYTQKSLSLSPG
# B6: VRT-6 (Fc fusion)
# chain: B1 chain with K27V, A69R, D99S, N102D, A203G, N227E, E231K, E267K, D268E
# B7: VRT-8 (Fc fusion)
# chain: VTSVWTKGVTPPADFTQGEDVFHAPYVANQGWYDITKTFNGKDDLLCGAATAGNMLHWWFDQNKEYIEAYLKKHPEKQKIMFGDQELLDVRKAINTKGSQKNSELFNYFRDKAFPNLSARRLGVMPDLVLDMFINGYYLNVTKTQTTDVNRTYQEKDKRGGIFDAVFTRGDQSKLLTSRHDFKEKGLKEISDLIKQELTEGKALGLSHTYANVRINHVINLWGADFDSDGNLKAIYVTDSDSNASIGMKKYFVGVNSAGKVAISAKEIKEDNIGAQVLGLFTLSTGQDIWNQTNDKTHTCPPCPAPEAAGAPSVFLFPPKPKDTLMISRTPEVTCVVVDVSHEDPEVKFNWYVDGVEVHNAKTKPREEQQNSTYRVVSVLTVLHQDWLNGKEYKCKVSNKALKAPIEKTISKAKGQPREPQVYTLPPSRDELTKNQVSLTCLVKGFYPSDIAVEWESNGQPENNYKTTPPVLDSDGSFFLYSKLTVDKSRWQQGNVFSCSVMHEALHNHYTQKSLSLSPG
# B8: VRT-4 (Fc fusion)
# chain: SQTEDSESLQRLRDIEDFQAEKKMQNVVYTKWLDGVDVKDHDFRKIVDGNIAYYATPLLNGRGFYDINKDFNRDSDKCAAAVAANMFHYWLDINRDNVDRFLRQNPEKHGIIELPDGQLKLSDFLNTYESDHGYRDKSKLFDFISNNFNGPVWTDKLLDNYINGYAYNYKYGRTIEDPTKNTSKINFFKEVFNEKILTNNHSIRNQNEFSVLLSEALYTGKAIGLSYGPAGLRHSLGHIISVWGADLDADGNVVAIYVTDSDDKKLTIGDERVGLKRYKISTDDENRLRLTAYEETHNTGGQIRGLWTLDTGKYAWADYFDKTEQTGTDQAEQDKTHTCPPCPAPEAAGAPSVFLFPPKPKDTLMISRTPEVTCVVVDVSHEDPEVKFNWYVDGVEVHNAKTKPREEQQNSTYRVVSVLTVLHQDWLNGKEYKCKVSNKALKAPIEKTISKAKGQPREPQVYTLPPSRDELTKNQVSLTCLVKGFYPSDIAVEWESNGQPENNYKTTPPVLDSDGSFFLYSKLTVDKSRWQQGNVFSCSVMHEALHNHYTQKSLSLSPG
# B9: VRT-3 (Fc fusion)
# chain: QITSVWTKGVTPLTPEQFRYNNEDVIHAPYLAHQGWYDITKAFDGKDNLLCGAATAGNMLHWWFDQNKTEIEAYLSKHPEKQKIIFNNQELFDLKAAIDTKDSQTNSQLFNYFRDKAFPNLSARQLGVMPDLVLDMFINGYYLNVFKTQSTDVNRPYQDKDKRGGIFDAVFTRGDQTTLLTARHDLKNKGLNDISTIIKQELTEGRALALSHTYANVSISHVINLWGADFNAEGNLEAIYVTDSDANASIGMKKYFVGINAHGHVAISAKKIEGENIGAQVLGLFTLSSGKDIWQKLSDKTHTCPPCPAPEAAGAPSVFLFPPKPKDTLMISRTPEVTCVVVDVSHEDPEVKFNWYVDGVEVHNAKTKPREEQQNSTYRVVSVLTVLHQDWLNGKEYKCKVSNKALKAPIEKTISKAKGQPREPQVYTLPPSRDELTKNQVSLTCLVKGFYPSDIAVEWESNGQPENNYKTTPPVLDSDGSFFLYSKLTVDKSRWQQGNVFSCSVMHEALHNHYTQKSLSLSPG
# B10: VRT-11 (Fc fusion)
# chain: B9 chain with L13P, H33N, A42T, D44N, G190T, I197L, R206K, I259V, H264K
# B11: VRT-12 (Fc fusion)
# chain: B9 chain with H33N, A42T, D44N, S76K, D193E, I197L, R206K, A246S, I259V, H264K
# Target: pooled human IgG (human)
# Test: cell-based or functional assay
Binder,Enzyme Activity Endpoint Assay: Fab′2,Enzyme Activity Endpoint Assay: Fc,Enzyme Activity Endpoint Assay: IgG,Enzyme Activity Endpoint Assay: scIgG
B1,137 ng/µL,294 ng/µL,89 ng/µL,151 ng/µL
B2,56 ng/µL,266 ng/µL,71 ng/µL,169 ng/µL
B3,61 ng/µL,258 ng/µL,178 ng/µL,249 ng/µL
B4,97 ng/µL,238 ng/µL,247 ng/µL,100 ng/µL
B5,175 ng/µL,334 ng/µL,197 ng/µL,137 ng/µL
B6,132 ng/µL,304 ng/µL,78 ng/µL,172 ng/µL
B7,0 ng/µL,126 ng/µL,652 ng/µL,125 ng/µL
B8,0 ng/µL,29 ng/µL,990 ng/µL,24 ng/µL
B9,0 ng/µL,99 ng/µL,808 ng/µL,50 ng/µL
B10,0 ng/µL,90 ng/µL,829 ng/µL,38 ng/µL
B11,0 ng/µL,101 ng/µL,747 ng/µL,64 ng/µL
